Here are results for four substances from US20160046728.

This data set relates to Ir-CPI (Ixodes ricinus Contact Phase Inhibitor), recombinant.

With factor XIa, the “activation of factor XII into factor XIIa by factor XIa (reconstituted system, purified factors, chromogenic substrate)” value is “Ir-CPI inhibits ... the activation of factor XII into factor XIIa by factor XIa” and the “amidolytic activity on chromogenic substrate (protease:Ir-CPI 1:5)” value (“amidolytic activity” below) was “The results obtained did not show any effect of Ir-CPI protein on the amidolytic activity of these factors”.

For the substance plasma kallikrein, the “activation of factor XII into factor XIIa by kallikrein (reconstituted system, purified factors, chromogenic substrate)” value is “Ir-CPI did not inhibit the activation of factor XII into factor XIIa by kallikrein” and the “amidolytic activity” value is “The results obtained did not show any effect of Ir-CPI protein on the amidolytic activity of these factors”.

For the substance factor IXa, the “amidolytic activity” value was “The results obtained did not show any effect of Ir-CPI protein on the amidolytic activity of these factors”.

Turning to thrombin, the “amidolytic activity” value is on record as “The results obtained did not show any effect of Ir-CPI protein on the amidolytic activity of these factors”.
